{"source": "the DeepSol protein solubility set", "data": [{"assay": "soluble on expression in E. coli; label from the status in PepcDB or PDB records", "values": [{"sequence": "MALAHVSRRVISNQIRCFAAANQETSLVHVEKQFEAIEPEKRDKDAFMAAIATFKEKRGRTHVEFINTALKYVKEYGVHKDIDTYKGLLEVFPKGKMIPQTVFQKVFLHYPQQQNCAVKVLDEMEWHGVQPDKEIHDIVVNAFGEWNFATKKVKRMLYWMPKLKHSNKYLDRRHVEGKSLSPSELAGIALKMMSRDAASSISLLKLSDSSDPQQKWLATSQSPMQQILISELRKGDEVFVDAAKVYLQDRVIPFITLTGNTKLEPLNEFKNEDMDEDYTNWYADWQKQRGEAKRSIHEQDHETIFAMGAMYKDDNATAIRWIDNLQKTNPNMENLRFRVRLEGNPIISRK", "soluble on expression in E. coli": "not soluble"}, {"sequence": "MALHLHRAERTDLLADGLGALLADPQPDPFAQELVLVAARGVERWLSQRLSLVLGCGPGRADGVCAGIAFRNPQSLIAEITGTLDDDPWSPEALAWPLLAVIDASLDEPWCRTLASHLGHFATTDAEAELRRGRRYSVARRLAGLFASYARQRPGLLAAWLDGDLGELPGDLAWQPPLWRALVTTVGADPPHVRHDKTIARLRDGPADLPARLSLFGHTRLACTDVQLLDALAVHHDLHLWLPHPSDELWRALAGFQGADGLLPRRQDTSRRAAQHPLLETLGRDVRELQRALPAARATDEFLGATTKPDTLLGWLQADIAGNAPRPAGRSLSDADRSVQVHACHGPARQIDVLREVLLGLLEDDPTLQPRDIVVMCPDIDTYAPLIVAGFGLGEVAGDCHPAHRLRVRLADRALTQTNPLLSVAAELLTIAETRATASQLLNLAQAAPVRAKFGFADDDLDTITTWVRESNIRWGFDPTHRRRYGLDTVVHNTWRFGLDRILTGVAMSEDSQAWLDTALPLDDVGSNRVELAGRLAEFVERLHHVVGGLSGARPLVAWLDALATGIDLLTACNDGWQRAQVQREFADVLARAGSRAAPLLRLPDVRALLDAQLAGRPTRANFRTGTLTVCTMVPMRSVPHRVVCLVGLDDGVFPRLSHPDGDDVLAREPMTGERDIRSEDRQLLLDAIGAATQTLVITYTGADERTGQPRPPAVPLAELLDALDQTTSAPVRERILVTHPLQPFDRKNVTPGALLGAKPFTFDPAALAAAQAAAGKRCPPTAFISGRLPAPPAADVTLADLLDFFKDPVKGFFRALDYTLPWDVDTVEDSIPVQVDALAEWTVGERMLRDMLRGLHPDDAAHSEWRRGTLPPGRLGVRRAKEIRNRARDLAAAALAHRDGHGQAHDVDVDLGDGRRLSGTVTPVFGGRTVSVTYSKLAPKHVLPAWIGLVTLAAQEPGREWSALCIGRSKTRNHIARRLFVPPPDPVAVLRELVLLYDAGRREPLPLPLKTSCAWAQARRDGQDPYPPARECWQTNRFRPGDDDAPAHVRAWGPRAPFEVLLGKPRAGEEVAGEETRLGALAARLWLPLLAAEGSV", "soluble on expression in E. coli": "soluble"}, {"sequence": "MALMSDKFLSIVIPAYNSEKYIEKNLMFLSRQTSNNFEVIVVDDGSTDNTCEVSEACLENFKINHRVIRCEENRGQSVARNIGINYSRGKYILFLDSDDFAENNLVQILERNMFNEPDIVFFDYKRIKEGDSVNVNIAQNFEFGKIKSGEEVFNAYKDNKIRLWTGSLVYNKEFLNKNKLRFLEGAHGAEDLNFIFKALLSSKKVRGIEDSLVFYCQRGDSLTNNPDIYKNITVVESMEDVAKFIDENKLDKKLKEAIEKEFTCEHIMYQILGYLNSETKKDTLSVLKNKNVKKYLKKATIKTNRYGRSMYTYMKMAAYFPNLFIKTYLKNTGKLEHHHHHH", "soluble on expression in E. coli": "soluble"}, {"sequence": "MALSKFNLFIGDILFNTLTGYAIKLESWEIEKLRKGVVPEHLKDIIEEGFSATDEDLDEEIEKFLRKPVLEPTLVLTYNCNFDCIYCFQKGFRKNISVSDKVTRGFVNYIRKNEKGRKVRVTYFGGEPILQLRKIEEISRELSDLKYSFSVVTNGSLLTRKIVERLIPLGLTHVQITLDGPKEVHDKRRFFVSGEGTFDVIVKNLKEIQDMVKVVLRINIDVKNLNEIGELLNELKMEGINRVRLDPHLVHSNVFRNEWWDFTISSKAEGDVMVKFWEIARKYGFEVPQDVLRLGLCVAYSSEDIVVDPEGNIYPCWAFTGNPLYVKGKLEEDGSVKVTNKSLWWKVKIEDKCRECPFLPLCMGGCKFLATINGDDCKREAYEKIVRSIRWVMG", "soluble on expression in E. coli": "not soluble"}, {"sequence": "MAMNGTITTWFKDKGFGFIKDENGDNRYFHVIKVANPDLIKKDAAVTFEPTTNNKGLSAYAVKVVPESKYIYIAGERLKLTSIKSYLVYSEEVPADTRIDKENTVLSVGVLMNSIRPKSVAEPDEIRSLKKLAITTFQGTTLIFSEDEIDVDATVKLLKVLEHHHHHH", "soluble on expression in E. coli": "soluble"}]}]}
